Conditions: Bacillus amyloliquefaciens; pH 6.3; 25 °C; Urea; Fluorescence; MES 50 mM; reversible: yes; whole UniProt chain shown

B1: Ribonuclease wild type, P00648 (protein)
chain: MMKMEGIALKKRLSWISVCLLVLVSAAGMLFSTAAKTETSSHKAHTEAQVINTFDGVADYLQTYHKLPDNYITKSEAQALGWVASKGNLADVAPGKSIGGDIFSNREGKLPGKSGRTWREADINYTSGFRNSDRILYSSDWLIYKTTDHYQTFTKIR
In the case of B1, the denaturant m value is reported as 1.92 kcal/mol/M, the “denaturant midpoint (higher = more stable)” value is reported as 4.58 M and the unfolding free energy is reported as 8.82 kcal/mol.
